Measured values taken from US20220119517A1 (NANJING SANHOME PHARMACEUTICAL, published 2022).

Assays:
[1] = biological target: T1, human Claudin18.2 (CLDN18.2), full length, on cells (human); experiment: FACS on CHO-K1-CLDN18.2 cells, PE-anti human Fc, MFI
T1 construct: also called CLDN18.2-FL; HEK293-CLDN18.2 cells
Procedure: (§1) CHO-K1-CLDN18.2 cells and CHO-K1-CLDN18.1 cells (prepared in Example 5) were digested with gastric cancer cell digestion solution at 37° C. for 15 minutes, respectively; terminated with complete culture medium, centrifuged at 1000 rpm for 5 minutes, the supernatant was discarded; the cells were resuspended with 2% fetal bovine serum-PBS diluent, the cells were adjusted to 1×10⁶ cells/ml, 100 μl of cell suspension was added to each well of the 96-well U-shaped-bottom plate; 2% fetal bovine serum-PBS was used to dilute the humanized antibody and the control antibody to final concentrations of 10 μg/ml, 2 μg/ml, 0.4 μg/ml, 0.08 μg/ml and 0.016 μg/ml, respectively, mixed well with the cells in equal volume, incubated at 4° C. for 1 hour; centrifuged at 1000 rpm for 5 minutes, the supernatant was discarded; 200 μl Cell Stain Buffer (Biolegend) was added to each well to wash twice, centrifuged at 1000 rpm for 5 minutes at each time and the supernatant was discarded; 100 μl of PE-anti human Fc antibody (Biolegend) was added, incubated at 4° C. for 1 hour; washed with Cell Stain Buffer (Biolegend) twice, centrifuged at 1000 rpm for 5 minutes at each time and the supernatant was discarded. 300 μl Cell Stain Buffer was added to resuspend the cells, and detected by BD FACS Jazz flow cytometry analyzer.

[2] = biological target: T2, human Claudin18.1 (CLDN18.1), full length, on cells (human, UniProt P56856 1-261); experiment: FACS on CHO-K1-CLDN18.1 cells, PE-anti human Fc, MFI
T2 construct: HEK293-CLDN18.1 cells carry a fusion with green fluorescent protein (ZsGreen); CHO-K1-CLDN18.1 cells carry pcDNA3.1-CLDN18.1; The cell line is named under assay; also called CLDN18.1-FL; HEK293-CLDN18.1 cells
Procedure: as §1

[3] = biological target: T1, human Claudin18.2 (CLDN18.2), full …; experiment: cellular ELISA, hybridoma supernatant on fixed HEK293-CLDN18.2 cells
Procedure: (§2) HEK293-CLDN18.1 and HEK293-CLDN18.2 cells were cultured separately with DMEM complete culture medium containing 10% fetal bovine serum at 37° C., 5% CO₂. When the cells grew to 80%-90% confluency, they were digested with 0.5 mM EDTA-PBS non-trypsin digestion solution at room temperature, and centrifuged at 1000 rpm for 5 minutes, the supernatant was discarded. Resuspended in DMEM complete culture medium, and the cell concentration was adjusted to 6×10⁵ cells/ml. Cells were plated on 96-well cell plates (Corning) pre-coated with polylysine, 100 μl per well, incubated at 37° C., 5% CO₂ for 24 hours, making cells evenly and completely plated on the bottom of the well. The culture supernatant was aspirated, and the cells were fixed with 4% paraformaldehyde at room temperature for 20 minutes, washed 3 times with 200 μl PBS, 2 minutes at each time. The well plates were blocked with 200 μl of 3% BSA-PBS at 37° C. for 1 hour. […] of subclone culture supernatant was taken and added into the well plate, incubated at 37° C. for 1 hour, washed 5 times with PBS. Incubation with HRP-anti mouse IgG+IgM (Jackson) diluted 1:10000 in blocking solution was performed at 37° C. for 1 hour followed by washing 5 times with PBS. 100 μl of TMB one-component color developing solution was added, protected from light at room temperature for 5-10 minutes, terminated with 2M sulfuric acid, and OD450 was read on the microplate reader. The results are shown in Table 3, subclones of which the hybridoma culture supernatant show strong positive binding to CLDN18.2 (that is, the OD value is 50% higher than the OD value of the positive control) include: S3F10C5, S5H3A6, S5H3B6, S5H3D6, S6F10E7, S6H9B8, S6H9C8, C40B10D9, C42B12D10 and C58B11E11. Among these subclones, S5H3A6, S5H3B6, S5H3D6, C40B10D9, C42B12D10 and C58B11E11 show negative binding to CLDN18.1 cells.

[4] = biological target: T2, human Claudin18.1 (CLDN18.1), full …; experiment: cellular ELISA, hybridoma supernatant on fixed HEK293-CLDN18.1 cells
Procedure: as §2

[5] = biological target: T1, human Claudin18.2 (CLDN18.2), full …; experiment: cellular ELISA on fixed HEK293-CLDN18.2 cells
Procedure: HEK293-CLDN18.1 and HEK293-CLDN18.2 cells were resuscitated two weeks in advance, cultured with DMEM complete culture medium containing 10% fetal bovine serum at 37° C., 5% CO₂. When the cells grew to 80%-90% confluency, they were digested with 0.5 mM EDTA-PBS (Sigma) at room temperature, centrifuged at 1000 rpm for 5 minutes, the supernatant was discarded. Cells were resuspended in DMEM complete culture medium, the cell concentration was adjusted to 6×10⁵ cells/ml. Cells were plated on 96-well cell plates (Corning) pre-coated with polylysine at 2.5 μg/well, 100 μl per well, incubated at 37° C., 5% CO₂ for 24 hours, making cells evenly and completely plated on the bottom of the well. The supernatant was aspirated, and the cells were fixed with 4% paraformaldehyde at room temperature for 20 minutes, washed 3 times with 200 μl PBS, 2 minutes at each time. The well plates were blocked with 200 μl of 3% BSA-PBS at 37° C. for 1 hour. Each chimeric antibody was diluted with 3% BSA-PBS to a concentration of 6 μg/ml, and diluted in a 6-fold gradient to a total of 7 concentrations. At the same time, IMAB362-similar-hG1 diluted in the same concentration gradient as the positive control, and human IgG1, kappa isotype control antibody (hereinafter referred to as Isotype, provided by CrownBio (Taicang) Co., Ltd.) as the negative control were added to HEK293-CLDN18.2 and HEK293-CLDN18.1 cell plates, respectively. The cells were incubated at 37° C. for 1 hour, washed 5 times with PBS. Incubation with HRP-anti human IgG (Jackson) diluted 1:10000 in blocking solution was performed at 37° C. for 1 hour followed by washing 5 times with PBS. 100 μl of TMB one-component color developing solution was added, protected from light at room temperature for 5-10 minutes, terminated with 50 μl of 2M sulfuric acid, OD450 was read on the microplate reader. Data processing: the original data was put into GraphPad 5.0 software for plotting and calculation.

[6] = biological target: T2, human Claudin18.1 (CLDN18.1), full …; experiment: FACS on CHO-K1-CLDN18.1 cells
Excerpt: Human gastric cancer cells NUGC4 and stably transfected cells CHO-K1-CLDN18.1 (prepared in Example 5) were used respectively, to verify the specificity and affinity of the anti-CLDN18.2 antibodies above at the cellular level by FAGS technology. After antibody affinity maturation and screening in vitro, each antibody can bind to the CLDN18.2 target on NUGC4 cells, but not to CHO-K1-CLDN18.1 cells, as compared with the original 3CHI antibody.

B1: Hu330-3 (antibody, V domains shown)
VH: EVQLLESGGGLVQPGGSLRLSCAASGFGFSDYGMAWVRQAPGKGLEWVSFISNSAYSIYYADTVTGRFTISRDNSKNTLYLQMNSLRAEDTAVYYCARLGRGNSFAYWGQGTLVTVSS
VL: DIVMTQSPDSLAVSLGERATINCKSSQSLLNSGNQKNYLTWYQQKPGQPPKLLIYWGSTRESGVPDRFSGSGSGTDFTLTISSLQAEDVAVYYCQNELFYPLTFGQGTKLEIK
notes: Humanized full antibody; also called humanized antibody Hu330-3
B1: binds [1]; no binding [2].

B2: Hu330-5 (antibody, V domains shown)
VH: EVQLVESGGGLVQPGGSLRLSCAASGFGFSDYGMAWVRQAPGKGLEWVSFISNSAYSIYYADTVTGRFTISRDNAKNSLYLQMNSLRAEDTAVYYCARLGRGNSFAYWGQGTLVTVSS
VL: DIVMTQSPLSLPVTLGQPASISCKSSQSLLNSGNQKNYLTWYQQRPGQSPRLLIYWGSTRESGVPDRFSGSGSGTDFTLKISRVEAEDVGVYYCQNELFYPLTFGQGTKLEIK
notes: Humanized full antibody; also called humanized antibody Hu330-5
In the case of B2, the “EC50 (read off the curve)” value [1] is reported as roughly 200 ng/mL and the binding result [2] is reported as “no binding”.

B3: Hu330-6 (antibody, V domains shown)
VH: EVQLLESGGGLVQPGGSLRLSCAASGFGFSDYGMAWVRQAPGKGLEWVSFISNSAYSIYYADTVTGRFTISRDNSKNTLYLQMNSLRAEDTAVYYCARLGRGNSFAYWGQGTLVTVSS
VL: DIVMTQSPLSLPVTLGQPASISCKSSQSLLNSGNQKNYLTWYQQRPGQSPRLLIYWGSTRESGVPDRFSGSGSGTDFTLKISRVEAEDVGVYYCQNELFYPLTFGQGTKLEIK
notes: Humanized full antibody; also called humanized antibody Hu330-6
For B3, the “EC50 (read off the curve)” value [1] was roughly 200 ng/mL and the binding result [2] was “no binding”.

B4: S5H3B6 (antibody, mouse IgM, V domains shown)
VH: EVKLVESGGGLVQPGGSLKLSCAASGFTFSDYGMAWVRQAPRKGPEWVAFISNLAYSIYYADTVTGRFTISRENAKNTLYLEMSSLRSEDTAMYYCARLGYGNSFAYWGQGTLVTVSA
VL: DIVMTQSPSSLTVTAGEKVTMSCKSSQSLLNSGNQKNYLTWYQQKPGQPPKLLIYWASTRESGVPDRFTGSGSGTDFTLTISSVQAEDLAVYYCQNDYSYPLTFGAGTKLELK
notes: Hybridoma supernatant antibody; murine IgM, kappa; also called subclone S5H3B6
For B4, the OD450 [3] was 1.38 OD, the OD450 [4] was 0.152 OD and the binding result [4] was “no binding”.

B5: 17CHI (antibody, V domains shown)
VH: EVQLQQSGPELVKPGASVKMSCKASGYTFTDYNMHWVKQSHGKSLEWIGYINPNNGGTSYNQKFKGKATLTVNKSSSTAYMELRSLTSEDSAVYYCARIYYGNSFAYWGQGTLVTVSA
VL: DIVMTQSPSSLTVTAGEKVTMSCKSSQSLLNSGNQKNYLTWYQQKPGQPPKLLIYWASTRESGVPDRFTGSGSGTDFTLTISSVQAEDLAVYYCQNDYSYPFTFGSGTKLEIK
notes: Human-murine chimeric antibody with the constant region of human IgG1; also called chimeric antibody of C58B11E11
B5 was tested, and the EC50 [5] was 2.44 nM and the “MFI (CLDN18.1)” value [6] was 14500 MFI.

B6: B4B10G3 (antibody, V domains shown)
VH: QIQLVQSGPELKKPGETVKISCKASGYTFTNYGMNWVKQAPGKGLKWMGWINTYTGEPTYADDFKGRFAFSLETSASTAYLQINNLKNEDMATYFCARDGQLGLRFAYWGQGTLVTVSA
VL: NIMMTQSPSSLAVSAGEKVTMSCKSSQSVLYSSNQKNYLAWYQQKPGQSPKLLIYWASTRESGVPDRFTGSGSGTDFTLTISSVQAEDLAVYYCHQYLSSRTFGGGTKLEIK
notes: Hybridoma supernatant antibody; murine IgG2b, kappa; also called subclone B4B10G3
With B6 the OD450 [3] was 0.343 OD and the OD450 [4] was 0.2 OD.

B7: S6H9B8 (antibody, mouse IgG3, V domains shown)
VH: QVQLQQSGAELARPGASVKLSCKASGYTFTSYGISWVKQRTGQGLEWIGEIYPRSGNTYYNEKFKGKATLTADKSSSTAYMELRSLTSEDSAVYFCASLAWFAYWGQGTLVTVSA
VL: DIVMTQAAPSVPVTPGESVSISCRSSKSLLHSNGNTYLYWFLQRPGQSPQLLIYRMSNLASGVPDRFSGSGSGTAFTLRISRVEAEDVGVYYCMQHLEYPYTFGGGTKLEIK
notes: Hybridoma supernatant antibody; murine IgG3, kappa; also called subclone S6H9B8
With B7 the OD450 [3] was 2.35 OD and the OD450 [4] was 1.5 OD.

B8: C40B10D9 (antibody, mouse IgM, V domains shown)
VH: QVQLKESGPGLVAPSQSLSITCTVSGFSLTSYGVSWVRQPPGKGLEWLGVIWGDGSTNYHSALISRLSISKDNSKSQVFLKLNSLQTDDTATYYCAGGLRLWFAYWGQGTLVTVSA
VL: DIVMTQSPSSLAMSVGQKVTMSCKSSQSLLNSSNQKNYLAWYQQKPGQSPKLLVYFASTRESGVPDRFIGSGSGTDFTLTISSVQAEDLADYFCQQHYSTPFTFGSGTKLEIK
notes: Hybridoma supernatant antibody; murine IgM, kappa; also called subclone C40B10D9
With B8 the OD450 [3] was 0.664 OD, the OD450 [4] was 0.114 OD and the binding result [4] was “no binding”.

B9: C42B12D10 (antibody, mouse IgM, V domains shown)
VH: QVQLQQSGAELVKPGASVKMSCKASGYTFTTYPIEWMKQNHGKSLEWIGNFHPYNDDTKYNEKFKGKATLTVEKSSSTVYLELSRLTSDDSAVYYCARRGYGSSYAMDYWGQGTSVTVSS
VL: DIVMTQSPSSLSVSAGEKVTMSCKSSQSLLNSGNQKNYLAWYQQKPGQPPKLLIYGASTRESGVPDRFTGSGSGTDFTLTISSVQAEDLAVYYCQNDHSYPYTFGGGTKLEIK
notes: Hybridoma supernatant antibody; murine IgM, kappa; also called subclone C42B12D10
For B9, the OD450 [3] was 0.76 OD.

B10: C58B11E11 (antibody, mouse IgG2c, V domains shown)
VH: EVQLQQSGPELVKPGASVKMSCKASGYTFTDYNMHWVKQSHGKSLEWIGYINPNNGGTSYNQKFKGKATLTVNKSSSTAYMELRSLTSEDSAVYYCARIYYGNSFAYWGQGTLVTVSA
VL: DIVMTQSPSSLTVTAGEKVTMSCKSSQSLLNSGNQKNYLTWYQQKPGQPPKLLIYWASTRESGVPDRFTGSGSGTDFTLTISSVQAEDLAVYYCQNDYSYPFTFGSGTKLEIK
notes: Hybridoma supernatant antibody; murine IgG2c, kappa; also called subclone C58B11E11
For B10, the OD450 [3] was 0.671 OD.

B11: 19CHI (antibody, V domains shown)
VH: QVQLQQSGAELVKPGASVKMSCKASGYTFTTYPIEWMKQNHGKSLEWIGNFHPYNDDTKYNEKFKGKATLTVEKSSSTVYLELSRLTSDDSAVYYCARRGYGSSYAMDYWGQGTSVTVSS
VL: DIVMTQSPSSLSVSAGEKVTMSCKSSQSLLNSGNQKNYLAWYQQKPGQPPKLLIYGASTRESGVPDRFTGSGSGTDFTLTISSVQAEDLAVYYCQNDHSYPYTFGGGTKLEIK
notes: Human-murine chimeric antibody with the constant region of human IgG1; also called chimeric antibody of C42B12D10
B11 was tested, and the EC50 [5] was 29.9 nM.
